Laboratory results published in paper PMC7984254 (Biochimica et biophysica acta. Molecular cell research, 2020).

Molecular target: recombinant FGF14 protein (aa 64–252) (human, UniProt Q92915-2 64-252)
Assay: SPR

koff: 0.158 s⁻¹
kon: 23200 M⁻¹ s⁻¹
Binder: KFKESVFENAYVIYSSMLYR (peptide, UniProt Q92915-2 149-168, looked up) [FGF14^Y158A mutant peptide]
